Article PMC6068260, “Functional Analysis of a Carboxylesterase Gene Associated With Isoprocarb and Cyhalothrin Resistance in Rhopalosiphum padi (L.)” (Frontiers in Physiology, 2018)

Substrate: CC(=O)Oc1cccc2ccccc12
Test: purified protein
Format: biochemical, Rhopalosiphum padi
Conditions: Tris-HCl buffer, 3 mM Fast Blue RR salt, 5 min

B1: RpCarE (Rhopalosiphum padi) (protein)
chain: MEVVIEQGVLKGVQNKTLLSNKPYVSFLGIPYAKPPVNDLRFKPPVKHPGWSGILKAISERDRCMQYAFVANDIIGSEDCLYLNVLVPQNGLNEKLAVMIFIHGGAFNYGCGSVNEQSPDYLLDENVIVITLNYRLNALGFLNLDIDECPGNMGLKDQLFAIKWIKANIAAFGGDVNNITIFGESAGSVSVHYHTMSPQSTGLFQKAIMQSGCAFNPWALNENHRVAAFKLAKNLGCLSSDPNEIVKYLRNVSAIDLVKETKFKDDNGFLDYKFVPSIESDMVSDRFLPAHPKTLATIASPVPVIVGLNSMEGIIALSEYRLSKFSDLQITDEISKLFNNQYSTEVISKIKDFYFNKCNNNCEIAKLENICHLHSDVFFVKDFYRGFDHFLKQNVTPVYIYEFKFDGELNAIKNWIFATRPVLRHALKGACHADEIYYLFRNNLSGVVPKPNSPELEMCKAMGKMWSNFAKTGDPNSLDLSFKWNYASASDTKYLSIDGDRTQMTQGMINNNRSRFWKDLIKESIV
notes: pET-28a His6-tag fusion (tag kept), E. coli BL21(DE3); catalytic triad S185-E312-H432
For B1, which Km is on record?
The Km was 42.98 ± 6.73 µM.

What about the kcat of the same protein?
Its kcat is 5.50 ± 0.28 s⁻¹.

And the kcat/Km?
The kcat/Km was 130000 M⁻¹ s⁻¹.
